Test [1] addresses T1, Flag-Pyk2 (proline-rich tyrosine kinase 2 with N-terminal Flag tag, expressed from pFlag-Pyk2) (UniProt Q14289 1-1009).
T1 construct: Overexpressed in cells; not shown: N-terminal Flag tag from the pBICEP-CMV-1 vector
The test can be described thus: anti-Flag immunoprecipitation from 293T lysate, Western blot with anti-GST. The text has this:
To determine a SOCS2 domain which is important in the binding with Pyk2, the present inventors carried out the following experiment. HA-Ubiquitin, pFlag-Pyk2, and, GST expression vector, pGST-SOCS2, pGST-SOCS2-ΔSH2 or pGST-SOCS2-ΔSOCS were cotransformed into 293T cells using Lipofectamin 2000. After 4 hr of transformation, the medium was replaced to a new culture medium, and 24 hr later, cells were lysed. The each cell lysate was allowed to react with anti-Flag antibody. The antigen-antibody complexes were precipitated by incubation at 4° C. for 1 day with G-protein-conjugated agarose. The immunoprecipitated complexes were washed with 1×PBS. Western blot analysis was performed by the same method in Example <2-1> using anti-GST antibody, anti-Flag antibody, or anti-HA antibody (Santa Cruz, U.S.A.).

Test [2] has as its target T1, Flag-Pyk2 (proline-rich tyrosine kinase …). The test can be described thus: anti-Flag immunoprecipitation from NK-92 lysate, Western blot with anti-GST. From the text:
(§1) From Example <12-4>, it was confirmed that phosphorylated Pyk2 and SOCS2 bind each other. To determine whether phosphorylation of Pyk2 is important in the binding with SOCS2 or not, the present inventors carried out the following experiment. First of all, HA-ubiquitin, pGST-SOCS2, and, pFlag-Pyk2 or pFlag-Pyk2-Y402F were cotransformed into NK-92 cells using Lipofectamin 2000. After 4 hr of transformation, the medium was replaced to a new culture medium, and 24 hr later, cells were lysed. The each cell lysate was allowed to react with anti-Flag antibody. The antigen-antibody complexes were precipitated by incubation at 4° C. for 1 day with G-protein-conjugated agarose. The immunoprecipitated complexes were washed with 1×PBS. Western blot analysis was performed by the same method in Example <2-1> using anti-p-Pyk2^Tyr402 antibody, anti-GST antibody, anti-Flag antibody or anti-HA antibody.

In test [3] the target is T2, Flag-Pyk2-Y402F (mutant Pyk2 in which tyrosine 402 had been mutated to phenylalanine, N-terminal Flag tag) (UniProt Q14289 1-1009).
T2 construct: Made from pFlag-Pyk2 by site-directed mutagenesis; also called pFlag-Pyk2-Y402F; not shown: N-terminal Flag tag from the pBICEP-CMV-1 vector
T2 sequence (Q14289 whole entry Y402F): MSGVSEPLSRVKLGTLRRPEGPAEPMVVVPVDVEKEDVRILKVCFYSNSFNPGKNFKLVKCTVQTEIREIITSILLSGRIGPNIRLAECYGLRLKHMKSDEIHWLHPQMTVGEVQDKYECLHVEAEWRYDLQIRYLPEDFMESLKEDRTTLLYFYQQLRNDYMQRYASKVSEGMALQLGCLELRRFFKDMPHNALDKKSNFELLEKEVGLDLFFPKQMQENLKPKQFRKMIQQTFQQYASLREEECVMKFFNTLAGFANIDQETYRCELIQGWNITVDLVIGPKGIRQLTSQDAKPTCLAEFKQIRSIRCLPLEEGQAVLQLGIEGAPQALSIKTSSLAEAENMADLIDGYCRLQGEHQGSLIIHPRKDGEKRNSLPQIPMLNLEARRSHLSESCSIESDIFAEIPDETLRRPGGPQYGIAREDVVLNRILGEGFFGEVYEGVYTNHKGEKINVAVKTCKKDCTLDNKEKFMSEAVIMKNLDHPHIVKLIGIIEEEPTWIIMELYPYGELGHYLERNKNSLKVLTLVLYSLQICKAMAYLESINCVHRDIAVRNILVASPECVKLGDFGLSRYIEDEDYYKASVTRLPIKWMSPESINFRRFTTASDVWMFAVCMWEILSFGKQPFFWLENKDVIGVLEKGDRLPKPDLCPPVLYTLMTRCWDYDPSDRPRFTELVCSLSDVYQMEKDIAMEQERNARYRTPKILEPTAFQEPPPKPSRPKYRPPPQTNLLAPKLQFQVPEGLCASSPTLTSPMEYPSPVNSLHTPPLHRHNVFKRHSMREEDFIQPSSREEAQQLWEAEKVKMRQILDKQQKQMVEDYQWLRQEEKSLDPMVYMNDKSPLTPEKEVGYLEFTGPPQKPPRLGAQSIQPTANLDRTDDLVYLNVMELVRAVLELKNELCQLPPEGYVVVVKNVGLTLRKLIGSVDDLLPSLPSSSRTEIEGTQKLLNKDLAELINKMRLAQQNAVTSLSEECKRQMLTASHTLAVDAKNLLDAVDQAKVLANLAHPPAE
The description is as above.
Text: as §1

T1 sequence (Q14289 whole entry): as the sequence (Q14289 whole entry Y402F) above, with F402Y counted along it

B1: GST-SOCS2-ΔSH2 (mutant SOCS2 in which the SH2 domain was deleted, N-terminal GST tag) (other)
chain: MTLRCLEPSGNGGEGTRSQWGTAGSAEEPSPQAARLAKALRELGQ
notes: also called pGST-SOCS2-ΔSH2; not shown: N-terminal GST tag of the pEBG vector and the junction to it
For B1, the binding result in test [1] was “no binding”.

B2: GST-SOCS2 (SOCS2, suppressor of cytokine signaling 2, with N-terminal GST tag, expressed from pGST-SOCS2) (other, UniProt O14508 1-198, looked up)
chain: MTLRCLEPSGNGGEGTRSQWGTAGSAEEPSPQAARLAKALRELGQTGWYWGSMTVNEAKEKLKEAPEGTFLIRDSSHSDYLLTISVKTSAGPTNLRIEYQDGKFRLDSIICVKSKLKQFDSVVHLIDYYVQMCKDKRTGPEAPRNGTVHLYLTKPLYTSAPSLQHLCRLTINKCTGAIWGLPLPTRLKDYLEEYKFQV
notes: Overexpressed in 293T or NK-92 cells and tested in cell lysate; not shown: N-terminal GST tag from the pEBG vector
Take B2: the binding result in test [2] was “binds”; in test [3], “no binding”.

For the origin of these results see patent publication US20120282646A1 (KOREA RESEARCH INSTITUTE OF BIOSCIENCE AND BIOTECHNOLOGY, published 2012).
